Results reported in publication PMC11662665, “Phosphorylation-mediated disassembly of C-terminal binding protein 2 tetramer impedes epigenetic silencing of pluripotency in mouse embryonic stem cells” (Nucleic Acids Research, 2024).

B1: GST- or His6-tagged recombinant CTBP2, wild type (the two copies of the in vitro self-binding assay) (natural protein)
chain: not shown
notes: Two differently tagged copies of one protein; each copy carries one tag; The same constructs stand singly as m31 (His6) and m33 (GST); also called recombinant wild-type Ctbp2; source: E. coli BL21 DE3 pLysS, purified (glutathione Sepharose 4B or Ni-NTA agarose)
B2: FLAG-Suz12 1–138 (recombinant truncated Suz12, N-terminal region) (domain or fragment, human, UniProt Q15022 1-138, looked up)
chain: MAPQKHGGGGGGGSGPSAGSGGGGFGGSAAVAAATASGGKSGGGSCGGGGSYSASSSSSAAAAAGAAVLPVKKPKMEHVQADHELFLQAFEKPTQIYRFLRTRNLIAPIFLHRTLTYMSHRNSRTNIKRKTFKVDDML
notes: the methods call the cloned PRC2 components human

How the values were obtained:
[1] = target: the molecule itself; experiment: pull-down; 1 ug GST-tagged and 1 ug His6-tagged recombinant Ctbp2, pulled down with GSH beads; 25 mM Tris-Cl pH 7.5, 0.1% NP-40, 150 mM NaCl, NADH, BSA, 10% glycerol, 4 C; for the phosphorylated form after in vitro phosphorylation with HA-Chk2
GST-CTBP2 = target: T1, GST-CTBP2 (UniProt P56546 1-445); experiment: pull-down; recombinant truncated FLAG-Suz12 and GST-CTBP2 incubated in vitro; pull down with glutathione Sepharose; details: both partners purified
T1 construct: also called GST-tagged Ctbp2; source: E. coli BL21 DE3 pLysS, purified (glutathione Sepharose 4B)
T1 sequence (P56546 whole entry, the tested form may be a part): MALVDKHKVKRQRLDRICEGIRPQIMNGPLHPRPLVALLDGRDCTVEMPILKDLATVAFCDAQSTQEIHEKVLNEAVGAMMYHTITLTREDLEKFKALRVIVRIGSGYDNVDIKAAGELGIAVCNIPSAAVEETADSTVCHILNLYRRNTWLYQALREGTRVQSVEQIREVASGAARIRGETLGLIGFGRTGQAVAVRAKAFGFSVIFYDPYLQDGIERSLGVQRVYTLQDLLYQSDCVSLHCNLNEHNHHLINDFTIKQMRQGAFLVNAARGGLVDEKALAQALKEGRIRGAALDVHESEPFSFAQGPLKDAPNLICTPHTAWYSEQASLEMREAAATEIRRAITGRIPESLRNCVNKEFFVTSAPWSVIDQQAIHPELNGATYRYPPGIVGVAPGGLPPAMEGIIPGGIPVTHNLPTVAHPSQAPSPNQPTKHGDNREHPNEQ

Binder	binding result [1]	binding result (GST-CTBP2)
B1	binds	–
B2	–	binds
